Experimental data taken from US20250180556A1 (ECOLE POLYTECHNIQUE FEDERALE DE LAUSANNE EPFL, published 2025).

What was measured:
[1] = molecular target: T1, glutathione S-transferase (GST)-HmtA chimeric construct, biotinylated in vivo (Methanobrevibacter smithii, biotinylated in vivo by bacteria at the N-terminus (GST) end); test: ELISA (figure legend)
T1 construct: The construct was immobilised on coated polystyrene plates; also called GCJ construct; HmtA containing construct; not shown: glutathione S-transferase (GST)
T1 sequence (chain, as listed by the source mutant): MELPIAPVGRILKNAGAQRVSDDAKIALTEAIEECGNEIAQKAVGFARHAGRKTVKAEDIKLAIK
Experimental: (§1) The binding properties of all antibodies were tested by ELISA. A glutathione S-transferase (GST)-HmtA chimeric construct was prepared and further biotinylated in vivo by bacteria at the N-terminus (GST) end of the HmtA construct (GCJ construct). The construct was immobilized in coated polystyrene plates. A control chimeric GST construct (GCH) lacking HmtA was prepared, biotinylated and immobilized analogously.

[2] = molecular target: T1, glutathione S-transferase (GST)-HmtA …; test: ELISA, biotinylated GST-HmtA immobilised on coated plates
Experimental: as §1

binding result [1] | binding result [2] | Binder
binds |  | scFv of monoclonal antibody mAb5 (N-VH-linker-VL-C) (scFv, Selected from the Tomlinson I,J human scFv library (pIT2 vector); also called scFv based on mAb5) scFv: EVQLVQSGAEVKKPGESLKISCKGSGYSFTSYWIGWVRQMPGKGLEWMGIIYPGDSDTRYSPSFQGQVTISADKSISTAYLQWSSLKASDTAMYYCARAKVGQRYSSGRYFFDYWGQGTLVTVSSGGGGSGGGGSGGGGSTEIVLTQSPATLSLSPGERATLSCRASQSVSSYLAWYQQKPGQAPRLLIYDASNRATGIPARFSGSGSGTDFTLTISSLEPEDFAVYYCQQGAKDNPMTFGQGTKVEIKR
 | binds | scFv of monoclonal antibody mAb1 (N-VH-linker-VL-C) (scFv, Selected from the Tomlinson I,J human scFv library (pIT2 vector); also called scFv based on mAb1) scFv: EVQLVQSGAEVKKPGESLKISCKGSGYSFTSYWIGWVRQMPGKGLEWMGIIYPGDSDTRYSPSFQGQVTISADKSISTAYLQWSSLKASDTAMYYCARAGFRGYCSGGSCYRLPYWGQGTLVTVSSGGGGSGGGGSGGGGSTQSVLTQPPSVSAAPGQKVTISCSGSSSNIGNNYVSWYQQLPGTAPKLLIYDNNKRPSGIPDRFSGSKSGTSATLGITGLQTGDEADYYCGTWDVLAARSVFGGGTKLTVLG
 | binds | scFv of monoclonal antibody mAb2 (N-VH-linker-VL-C) (scFv, Selected from the Tomlinson I,J human scFv library (pIT2 vector); also called scFv based on mAb2) scFv: EVQLVQSGAEVKKPGESLKISCKGSGYSFTSYWIGWVRQMPGKGLEWMGIIYPGDSDTRYSPSFQGQVTISADKSISTAYLQWSSLKASDTAMYYCARLATGPHGIASAGRRYLDYWGQGTLVTVSSGGGGSGGGGSGGGGSTQSVLTQPPSVSAAPGQKVTISCSGSSSNIGNNYVSWYQQLPGTAPKLLIYDNNKRPSGIPDRFSGSKSGTSATLGITGLQTGDEADYYCGTWDSRGFGVFGGGTKLTVLG
